Three molecules from PMC8684745 (Molecular Biology of the Cell, 2021) can be followed below.

The target in data set [1] is Drp1 (full-length human Drp1 isoform 3, Drp1 000) (human) (UniProt O00429). As to the kind of experiment: TIRF microscopy.
Data set [2] concerns the target Drp1/actin bundles (actin filaments prebundled by Cy5-Drp1) (human | rabbit) (UniProt O15027). As to the kind of experiment: TIRF microscopy.
The data set “AUC” deals with the molecule itself. As to the kind of experiment: AUC.

For orientation: stoichiometry N means the number of molecules, sites or subunits per partner or assembly.

Chain of Drp1/actin bundles (actin filaments prebundled by Cy5-Drp1) (human | rabbit) (O15027 whole entry): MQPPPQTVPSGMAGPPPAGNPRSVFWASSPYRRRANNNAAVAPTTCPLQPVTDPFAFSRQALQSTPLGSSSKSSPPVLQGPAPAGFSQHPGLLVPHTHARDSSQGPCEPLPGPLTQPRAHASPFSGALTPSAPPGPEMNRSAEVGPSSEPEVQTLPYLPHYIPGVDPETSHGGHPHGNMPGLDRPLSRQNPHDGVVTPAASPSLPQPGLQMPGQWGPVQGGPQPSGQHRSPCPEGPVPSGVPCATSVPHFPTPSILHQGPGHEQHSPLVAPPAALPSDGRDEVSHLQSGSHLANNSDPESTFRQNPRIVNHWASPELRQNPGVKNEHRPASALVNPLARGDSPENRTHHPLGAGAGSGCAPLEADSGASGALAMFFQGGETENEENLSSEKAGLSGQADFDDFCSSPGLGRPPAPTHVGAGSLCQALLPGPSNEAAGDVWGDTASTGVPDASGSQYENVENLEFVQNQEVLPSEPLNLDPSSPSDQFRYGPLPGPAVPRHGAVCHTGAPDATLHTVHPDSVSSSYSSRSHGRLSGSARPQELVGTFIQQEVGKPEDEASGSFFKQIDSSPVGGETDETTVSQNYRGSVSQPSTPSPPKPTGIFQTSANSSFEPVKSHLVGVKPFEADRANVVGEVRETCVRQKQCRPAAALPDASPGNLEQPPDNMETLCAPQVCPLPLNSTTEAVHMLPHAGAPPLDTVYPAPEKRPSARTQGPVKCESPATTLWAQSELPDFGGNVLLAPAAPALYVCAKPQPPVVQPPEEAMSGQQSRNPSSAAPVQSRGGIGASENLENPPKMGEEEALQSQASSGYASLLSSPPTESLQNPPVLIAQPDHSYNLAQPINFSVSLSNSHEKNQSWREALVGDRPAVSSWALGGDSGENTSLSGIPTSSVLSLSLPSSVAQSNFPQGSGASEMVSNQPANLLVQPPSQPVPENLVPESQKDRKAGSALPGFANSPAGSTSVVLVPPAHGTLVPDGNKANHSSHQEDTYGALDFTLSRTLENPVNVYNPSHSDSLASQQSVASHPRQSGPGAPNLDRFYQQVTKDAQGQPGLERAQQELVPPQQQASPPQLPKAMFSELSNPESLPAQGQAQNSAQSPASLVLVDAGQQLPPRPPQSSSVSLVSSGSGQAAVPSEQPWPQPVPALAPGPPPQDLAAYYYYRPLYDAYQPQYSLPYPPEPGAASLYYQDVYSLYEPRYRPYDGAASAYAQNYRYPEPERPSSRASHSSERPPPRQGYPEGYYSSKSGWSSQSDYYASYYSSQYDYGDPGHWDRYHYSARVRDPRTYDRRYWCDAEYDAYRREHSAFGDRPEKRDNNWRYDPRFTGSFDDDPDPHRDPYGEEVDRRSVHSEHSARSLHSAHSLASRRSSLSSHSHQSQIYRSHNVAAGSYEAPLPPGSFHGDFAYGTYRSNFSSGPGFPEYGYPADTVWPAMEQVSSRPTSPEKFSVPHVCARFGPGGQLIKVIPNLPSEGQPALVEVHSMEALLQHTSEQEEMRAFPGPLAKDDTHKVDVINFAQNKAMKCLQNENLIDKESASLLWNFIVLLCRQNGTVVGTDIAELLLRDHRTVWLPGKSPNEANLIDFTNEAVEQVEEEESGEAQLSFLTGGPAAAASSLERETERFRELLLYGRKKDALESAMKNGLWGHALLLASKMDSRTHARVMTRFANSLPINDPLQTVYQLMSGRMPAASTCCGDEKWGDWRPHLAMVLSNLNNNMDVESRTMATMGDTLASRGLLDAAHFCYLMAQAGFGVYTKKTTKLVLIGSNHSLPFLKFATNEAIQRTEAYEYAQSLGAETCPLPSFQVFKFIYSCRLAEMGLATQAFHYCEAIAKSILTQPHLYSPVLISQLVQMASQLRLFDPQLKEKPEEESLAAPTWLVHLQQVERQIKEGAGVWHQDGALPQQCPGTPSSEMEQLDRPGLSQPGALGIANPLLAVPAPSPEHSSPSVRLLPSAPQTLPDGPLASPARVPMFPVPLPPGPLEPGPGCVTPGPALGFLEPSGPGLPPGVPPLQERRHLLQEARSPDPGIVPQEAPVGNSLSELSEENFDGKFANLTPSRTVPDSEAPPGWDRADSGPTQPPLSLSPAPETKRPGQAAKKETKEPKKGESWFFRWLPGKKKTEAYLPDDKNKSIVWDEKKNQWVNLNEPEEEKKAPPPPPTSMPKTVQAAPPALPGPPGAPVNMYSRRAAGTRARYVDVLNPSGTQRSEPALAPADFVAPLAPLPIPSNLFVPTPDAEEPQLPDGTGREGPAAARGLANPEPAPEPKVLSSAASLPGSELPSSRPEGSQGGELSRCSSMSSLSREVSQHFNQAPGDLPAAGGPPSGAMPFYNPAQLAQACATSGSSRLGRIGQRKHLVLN

As for “Mff-L2P (Mff-∆TM with L179P and L186P) (from UniProt Q9GZY8-4 1-218) (domain or fragment)”, the fold less binding than Mff-∆TM in data set [1] is 5 fold.
In data set [2], “Mff-∆TM (cytoplasmic region of human Mff isoform 4, C-terminally 6His-tagged) (from UniProt Q9GZY8-4 1-218) (domain or fragment)” had a percent of Mff-∆TM remaining after wash of 50%.

B1: GFP-CC (CC domain of human Mff isoform 4, amino acids 149–197, on the C-terminus of GFP) (domain or fragment)
chain: SGGGGISNIDTTIEGTSDDLTVVDAASLRRQIIKLNRRLQLLEEENKERAKREGGGS
On to B1, for which the “stoichiometry N” value in the data set “AUC” was 3.
